Assay results taken from patent publication US20250074980A1 (BRIGHAM AND WOMEN S HOSPITAL, published 2025).
Where two headings read alike, the source gives them in different places.

T1: His-tagged CEACAM1 (human, UniProt P13688 35-428)
T1 construct: 45 kDa SPR analyte; also called CEACAM1-HIS; CEACAM1 analyte
T1 sequence: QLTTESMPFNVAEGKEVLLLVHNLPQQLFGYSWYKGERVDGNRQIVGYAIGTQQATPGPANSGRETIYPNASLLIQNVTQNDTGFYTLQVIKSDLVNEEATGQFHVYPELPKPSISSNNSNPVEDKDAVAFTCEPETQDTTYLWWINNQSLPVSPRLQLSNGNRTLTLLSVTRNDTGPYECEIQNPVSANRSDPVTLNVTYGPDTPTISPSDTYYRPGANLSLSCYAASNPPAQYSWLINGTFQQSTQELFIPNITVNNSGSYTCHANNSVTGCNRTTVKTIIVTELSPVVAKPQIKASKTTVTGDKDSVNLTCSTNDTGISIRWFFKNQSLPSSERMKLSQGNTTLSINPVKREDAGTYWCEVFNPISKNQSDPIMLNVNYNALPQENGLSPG


What was measured:
[1] = target: T1, His-tagged CEACAM1; assay: SPR single-cycle, supernatant IgG captured
Description: In order to assess the binding of the humanized, affinity matured reformatted lead IgGs, single-cycle kinetics analysis was performed on crude supernatants using a Biacore T200 running Biacore T200 Control Software V2.0.1 and Biacore T200 Evaluation Software V3.0. Antibodies were diluted in HBS-P+ to a final concentration of 0.5 μg/ml. At the start of each cycle, antibodies were loaded onto Fc2, Fc3 and Fc4 of the Protein A chip. IgGs were captured at a flow rate of 10 μl/min to give an immobilisation level (RL) of ˜100 RU (a level calculated to obtain a Rₘₐₓ of ˜50-150 RU once the analyte is bound). The surface was then allowed to stabilize. Single-cycle kinetics data was obtained with CEACAM1 as the analyte at a flow rate of 80 μl/min to minimize any potential mass transfer effects. Multiple repeats with the parent (VH1/Vκ8 S29A) antibody were performed to check the stability of the surface and analyte over the kinetic cycles. The signal from the reference channel Fc1 (no antibody) was subtracted from that of Fc2, Fc3 and Fc4 to correct for differences in non-specific binding to the reference surface. A three point, two-fold dilution range from 70 nM to 280 nM CEACAM1 without regeneration between each concentration was used. The signal from each antibody blank run (no CEACAM1) was subtracted to correct for differences in surface stability. The association phase for the three injections of increasing concentrations of CEACAM1 was monitored for 80 seconds each time and a single dissociation phase was measured for 150 seconds following the last injection of CEACAM1. Regeneration of the Protein A surface was conducted using two injections of 10 mM glycine-HCL pH 1.5 followed by a stabilization period of 250 seconds.

[2] = target: T1, His-tagged CEACAM1; assay: SPR single-cycle, supernatant IgG captured; remark: listed apart in the source
Procedure, shortened: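 On a Biacore T200 run at 25° C in HBS-P+ (pH 7.4), IgG captured on Protein A was probed with His-tagged CEACAM1 by single-cycle surface plasmon resonance. Fitted Kon, koff and Kd gave a relative KD referenced to the parent antibody from the same experiment. The IgG came from filtered, ELISA-quantified supernatants of HEK EBNA cells transiently transfected with PEI and harvested after 5-7 days.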

| Binder | Kd [1] | koff [1] | kon [1] | relative KD to parent [1] | Kd [2] | koff [2] | kon [2] | relative KD to parent [2] |
| --- | --- | --- | --- | --- | --- | --- | --- | --- |
| CP09B03/CP08D02 (antibody, IgG4, V domains shown, IgG4 (S241P), kappa) VH: EVQLLESGGGLVQPGGSLRLSCAASGFTFNAHAISWVRQAPGKGLEWVATISSGGTYTYYPDSVKGRFTISRDNSKNTLYLQMNSLKAEDTAMYYCARHDFDYDAAWFAYWGQGTLVTVSS VL: EIVLTQSPATLSLSPGERATLSCRANSAVSYMYWYQQKPGQAPRPWIYLTSNRATGVPARFSGSGSGTDYTLTISSLEPEDFAVYYCQQWTSFPPTFGQGTKLEIK |  |  |  |  | 290 nM | 0.059 s⁻¹ | 210000 M⁻¹ s⁻¹ | 1.9 |
| VH1/CP09F05 (antibody, IgG4, V domains shown, IgG4 (S241P), kappa) VH: EVQLLESGGGLVQPGGSLRLSCAASGFIFSSHGMSWVRQAPGKGLEWVATISSGGTYTYYPDSVKGRFTISRDNSKNTLYLQMNSLKAEDTAMYYCARHDFDYDAAWFAYWGQGTLVTVSS VL: EIVLTQSPATLSLSPGERATLSCRANSAVSYMYWYQQKPGQAPRPWIYLTSNRATGVPARFSGSGSGTDYTLTISSLEPEDFAVYYCQQNTALPFTFGQGTKLEIK | 1600 nM | 0.055 s⁻¹ | 35000 M⁻¹ s⁻¹ | 0.4 |  |  |  |  |
| CP09B03/CP08G09 (antibody, IgG4, V domains shown, IgG4 (S241P), kappa) VH: EVQLLESGGGLVQPGGSLRLSCAASGFTFNAHAISWVRQAPGKGLEWVATISSGGTYTYYPDSVKGRFTISRDNSKNTLYLQMNSLKAEDTAMYYCARHDFDYDAAWFAYWGQGTLVTVSS VL: EIVLTQSPATLSLSPGERATLSCRANSAVSYMYWYQQKPGQAPRPWIYLTSNRATGVPARFSGSGSGTDYTLTISSLEPEDFAVYYCQQWTAFPPTFGQGTKLEIK |  |  |  |  | 300 nM | 0.037 s⁻¹ | 130000 M⁻¹ s⁻¹ | 1.9 |
| CP09B03/CP08E01 (antibody, IgG4, V domains shown, IgG4 (S241P), kappa) VH: EVQLLESGGGLVQPGGSLRLSCAASGFTFNAHAISWVRQAPGKGLEWVATISSGGTYTYYPDSVKGRFTISRDNSKNTLYLQMNSLKAEDTAMYYCARHDFDYDAAWFAYWGQGTLVTVSS VL: EIVLTQSPATLSLSPGERATLSCRANSAVSYMYWYQQKPGQAPRPWIYLTSNRATGVPARFSGSGSGTDYTLTISSLEPEDFAVYYCQQWTTFPPTFGQGTKLEIK |  |  |  |  | 250 nM | 0.046 s⁻¹ | 180000 M⁻¹ s⁻¹ | 2.2 |
| VH1/CP08G02 (antibody, IgG4, V domains shown, IgG4 (S241P), kappa) VH: EVQLLESGGGLVQPGGSLRLSCAASGFIFSSHGMSWVRQAPGKGLEWVATISSGGTYTYYPDSVKGRFTISRDNSKNTLYLQMNSLKAEDTAMYYCARHDFDYDAAWFAYWGQGTLVTVSS VL: EIVLTQSPATLSLSPGERATLSCRANSAVSYMYWYQQKPGQAPRPWIYLTSNRATGVPARFSGSGSGTDYTLTISSLEPEDFAVYYCQQWTNNPPTFGQGTKLEIK | 2300 nM | 0.052 s⁻¹ | 23000 M⁻¹ s⁻¹ | 0.3 |  |  |  |  |
| CP09B03/CP08F05 (antibody, IgG4, V domains shown, IgG4 (S241P), kappa) VH: EVQLLESGGGLVQPGGSLRLSCAASGFTFNAHAISWVRQAPGKGLEWVATISSGGTYTYYPDSVKGRFTISRDNSKNTLYLQMNSLKAEDTAMYYCARHDFDYDAAWFAYWGQGTLVTVSS VL: EIVLTQSPATLSLSPGERATLSCRANSAVSYMYWYQQKPGQAPRPWIYLTSNRATGVPARFSGSGSGTDYTLTISSLEPEDFAVYYCQQWTSNPPTFGQGTKLEIK |  |  |  |  | 150 nM | 0.017 s⁻¹ | 110000 M⁻¹ s⁻¹ | 3.6 |

Continued by falling Kd [1], values first:

| Kd [1] | koff [1] | kon [1] | relative KD to parent [1] | Kd [2] | koff [2] | kon [2] | relative KD to parent [2] | Binder |
| --- | --- | --- | --- | --- | --- | --- | --- | --- |
| 1000 nM | 0.076 s⁻¹ | 74000 M⁻¹ s⁻¹ | 0.5 |  |  |  |  | CP09F03/Vκ8 S29A (antibody, IgG4, V domains shown, IgG4 (S241P), kappa) VH: EVQLLESGGGLVQPGGSLRLSCAASGFTFNNHGMSWVRQAPGKGLEWVATISSGGTYTYYPDSVKGRFTISRDNSKNTLYLQMNSLKAEDTAMYYCARHDFDYDAAWFAYWGQGTLVTVSS VL: EIVLTQSPATLSLSPGERATLSCRANSAVSYMYWYQQKPGQAPRPWIYLTSNRATGVPARFSGSGSGTDYTLTISSLEPEDFAVYYCQQWSSNPPTFGQGTKLEIK |
| 630 nM | 0.055 s⁻¹ | 87000 M⁻¹ s⁻¹ | 0.9 |  |  |  |  | CP08G10/Vκ8 S29A (antibody, IgG4, V domains shown, IgG4 (S241P), kappa) VH: EVQLLESGGGLVQPGGSLRLSCAASGFIFSSHGMSWVRQAPGKGLEWVATISSGGTYTYYPDSVKGRFTISRDNSKNTLYLQMNSLKAEDTAMYYCARHDFDYFPAWFAFWGQGTLVTVSS VL: EIVLTQSPATLSLSPGERATLSCRANSAVSYMYWYQQKPGQAPRPWIYLTSNRATGVPARFSGSGSGTDYTLTISSLEPEDFAVYYCQQWSSNPPTFGQGTKLEIK |
| 420 nM | 0.087 s⁻¹ | 210000 M⁻¹ s⁻¹ | 1.3 |  |  |  |  | CP08H01/Vκ8 S29A (antibody, IgG4, V domains shown, IgG4 (S241P), kappa) VH: EVQLLESGGGLVQPGGSLRLSCAASGFIFSSHGMSWVRQAPGKGLEWVATISSGGTYTYYPDSVKGRFTISRDNSKNTLYLQMNSLKAEDTAMYYCAKHPPDYFAAWFAYWGQGTLVTVSS VL: EIVLTQSPATLSLSPGERATLSCRANSAVSYMYWYQQKPGQAPRPWIYLTSNRATGVPARFSGSGSGTDYTLTISSLEPEDFAVYYCQQWSSNPPTFGQGTKLEIK |
| 400 nM | 0.047 s⁻¹ | 120000 M⁻¹ s⁻¹ | 1.5 |  |  |  |  | VH1/CP08G01 (antibody, IgG4, V domains shown, IgG4 (S241P), kappa) VH: EVQLLESGGGLVQPGGSLRLSCAASGFIFSSHGMSWVRQAPGKGLEWVATISSGGTYTYYPDSVKGRFTISRDNSKNTLYLQMNSLKAEDTAMYYCARHDFDYDAAWFAYWGQGTLVTVSS VL: EIVLTQSPATLSLSPGERATLSCRANSAVSYMYWYQQKPGQAPRPWIYLTSNRATGVPARFSGSGSGTDYTLTISSLEPEDFAVYYCQQNTNLPFTFGQGTKLEIK |
| 400 nM | 0.036 s⁻¹ | 90000 M⁻¹ s⁻¹ | 1.4 |  |  |  |  | CP09A04/Vκ8 S29A (antibody, IgG4, V domains shown, IgG4 (S241P), kappa) VH: EVQLLESGGGLVQPGGSLRLSCAASGFSFNAHAMSWVRQAPGKGLEWVATISSGGTYTYYPDSVKGRFTISRDNSKNTLYLQMNSLKAEDTAMYYCARHDFDYDAAWFAYWGQGTLVTVSS VL: EIVLTQSPATLSLSPGERATLSCRANSAVSYMYWYQQKPGQAPRPWIYLTSNRATGVPARFSGSGSGTDYTLTISSLEPEDFAVYYCQQWSSNPPTFGQGTKLEIK |
| 400 nM | 0.037 s⁻¹ | 110000 M⁻¹ s⁻¹ | 1.6 |  |  |  |  | CP09E03/Vκ8 S29A (antibody, IgG4, V domains shown, IgG4 (S241P), kappa) VH: EVQLLESGGGLVQPGGSLRLSCAASGFTFSAHAISWVRQAPGKGLEWVATISSGGTYTYYPDSVKGRFTISRDNSKNTLYLQMNSLKAEDTAMYYCARHDFDYDAAWFAYWGQGTLVTVSS VL: EIVLTQSPATLSLSPGERATLSCRANSAVSYMYWYQQKPGQAPRPWIYLTSNRATGVPARFSGSGSGTDYTLTISSLEPEDFAVYYCQQWSSNPPTFGQGTKLEIK |
| 350 nM | 0.038 s⁻¹ | 110000 M⁻¹ s⁻¹ | 1.5 |  |  |  |  | CP09G03/Vκ8 S29A (antibody, IgG4, V domains shown, IgG4 (S241P), kappa) VH: EVQLLESGGGLVQPGGSLRLSCAASGFTFNAHAMSWVRQAPGKGLEWVATISSGGTYTYYPDSVKGRFTISRDNSKNTLYLQMNSLKAEDTAMYYCARHDFDYDAAWFAYWGQGTLVTVSS VL: EIVLTQSPATLSLSPGERATLSCRANSAVSYMYWYQQKPGQAPRPWIYLTSNRATGVPARFSGSGSGTDYTLTISSLEPEDFAVYYCQQWSSNPPTFGQGTKLEIK |
| 340 nM | 0.04 s⁻¹ | 120000 M⁻¹ s⁻¹ | 1.6 |  |  |  |  | CP09B02/Vκ8 S29A (antibody, IgG4, V domains shown, IgG4 (S241P), kappa) VH: EVQLLESGGGLVQPGGSLRLSCAASGFTFTSHAISWVRQAPGKGLEWVATISSGGTYTYYPDSVKGRFTISRDNSKNTLYLQMNSLKAEDTAMYYCARHDFDYDAAWFAYWGQGTLVTVSS VL: EIVLTQSPATLSLSPGERATLSCRANSAVSYMYWYQQKPGQAPRPWIYLTSNRATGVPARFSGSGSGTDYTLTISSLEPEDFAVYYCQQWSSNPPTFGQGTKLEIK |
| 310 nM | 0.033 s⁻¹ | 110000 M⁻¹ s⁻¹ | 1.8 |  |  |  |  | CP09D03/Vκ8 S29A (antibody, IgG4, V domains shown, IgG4 (S241P), kappa) VH: EVQLLESGGGLVQPGGSLRLSCAASGFTFSSHAISWVRQAPGKGLEWVATISSGGTYTYYPDSVKGRFTISRDNSKNTLYLQMNSLKAEDTAMYYCARHDFDYDAAWFAYWGQGTLVTVSS VL: EIVLTQSPATLSLSPGERATLSCRANSAVSYMYWYQQKPGQAPRPWIYLTSNRATGVPARFSGSGSGTDYTLTISSLEPEDFAVYYCQQWSSNPPTFGQGTKLEIK |
